Tests used:
[1] = target: hIL2Rα; experiment: literature reference; Charych, PLOS ONE 2017
[2] = target: hIL2Rβ; experiment: literature reference; Charych, PLOS ONE 2017
[3] = target: hIL2Rα; experiment: literature reference; Stauber, PNAS 2006
[4] = target: hIL2Rβ; experiment: literature reference; Stauber, PNAS 2006

| Substance | Kd [1] [nM] | Kd [2] [nM] | Kd [3] [nM] | Kd [4] [nM] |
| --- | --- | --- | --- | --- |
| NKTR-214 (1-PEG-IL2) | 190 | 1770 | – | – |
| NKTR-214 (2-PEG-IL2) | 487 | 3950 | – | – |
| NKTR-214 (IL2) | 8.6 | 239 | – | – |
| hIL2w | – | – | 10 | 144 |
